Source: the supplement of paper PMC10065799, “High-throughput profiling of sequence recognition by tyrosine kinases and SH2 domains using bacterial peptide display” (eLife, 2023)

Each sequence was assayed against Hck (UniProt P08631) (assay: phosphorylation enrichment, bacterial display (enrichment ratio); higher = better substrate or ligand; peptides without Tyr show the background).
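Also: 11-residue human phosphosite peptides and single-mutation variants displayed on the E. coli surface, counted by deep sequencing, each peptide's frequency after selection divided by its frequency in the unselected input library; frequency after pTyr selection over input frequency; kinase dosed for 20-30% of maximal phosphorylation in three min.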

Sequence of Hck (P08631 whole entry, looked up): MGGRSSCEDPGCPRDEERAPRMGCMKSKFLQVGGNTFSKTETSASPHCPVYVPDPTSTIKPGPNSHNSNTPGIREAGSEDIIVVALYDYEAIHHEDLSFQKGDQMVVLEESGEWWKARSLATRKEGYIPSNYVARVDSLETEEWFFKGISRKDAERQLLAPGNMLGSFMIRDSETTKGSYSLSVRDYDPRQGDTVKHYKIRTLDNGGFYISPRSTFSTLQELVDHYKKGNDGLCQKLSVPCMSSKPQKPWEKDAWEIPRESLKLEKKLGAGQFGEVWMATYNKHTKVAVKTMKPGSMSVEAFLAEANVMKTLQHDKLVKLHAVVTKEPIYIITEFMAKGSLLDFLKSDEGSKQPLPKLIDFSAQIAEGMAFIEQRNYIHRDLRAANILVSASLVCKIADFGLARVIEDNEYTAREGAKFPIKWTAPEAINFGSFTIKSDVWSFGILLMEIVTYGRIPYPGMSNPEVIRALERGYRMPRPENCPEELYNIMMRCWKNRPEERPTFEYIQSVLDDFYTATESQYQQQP

| Sequence | phosphorylation enrichment |
| --- | --- |
| AEVIWYKGDEV | 0.602 |
| EILLSDLRTGY [TGM1_Y365_Y365D] | 0.553 |
| QDEHGYISLCF [HSPB1_Y133_R136L] | 1.17 |
| RQGKDYIGAIP [KDR_Y951_V952I] | 0.696 |
| CGTPDYIAPEI [PRKCG_Y521] | 0.568 |
| LVTCSYLLGNS [LMNA_Y646_R644C] | 0.803 |
| QDTSRYTVCNL [BIRC3_Y245_S248C] | 0.359 |
| KELANYFKLHH [AK7_Y390_YF] | 0.486 |
| KDHPDYKYQPR [SOX10_Y171] | 0.463 |
| WAMLAYNRSKL [WWOX_Y293] | 0.435 |
| EKLIQYCQSKS [AKR1B1_Y199_G204S] | 0.46 |
| DMDATYRPMFS [JUP_Y701_YF] | 0.762 |
| WHYTFYNELRV [ACTC1_Y93_H90Y] | 0.67 |
| TQTPPYVKKHR [LARP1B_Y457_P462R] | 0.649 |
| NPQKSYLIRLF [WAS_Y83_F84L_YF] | 0.407 |
| KRGVSYILKLA [SERPINB1_Y84_A82V] | 0.558 |
| CPPKVYELMRA [ABL2_Y515] | 1.81 |

| Sequence | phosphorylation enrichment |
| --- | --- |
| FLTQHYDAKPQ [ANG_Y38] | 0.67 |
| EDKFMYFEFPQ [PTEN_Y240] | 1.11 |
| RVNSAYQEKVS [ACAN_Y100_D102E] | 0.49 |
| FTRNFYVRAVL [CYBA_Y88_YF] | 0.565 |
| MSLRSYGSREG [APC_Y96] | 0.387 |
| VDTFWYKFLKR [EPM2A_Y86] | 0.467 |
| FQLENCCNGGG [INS_Y108_Y108C_YF] | 0.504 |
| QSVEPYTKQQL [STAT3_Y640] | 0.641 |
| EYYENYIEELK [PARP4_Y218_F215Y] | 0.554 |
| SAASGYSDVTD [DTX2_Y425_T421A] | 0.458 |
| LRWREYQRQDY [PRKRIP1_Y90_R87W] | 0.453 |
| KILGRYFETGS [PAX2_Y72_YF] | 0.397 |
| FPLELYERVRI [PRKCG_Y312_M317I_YF] | 1.18 |
| MTFVFYRENLR [NLRP14_Y443_YF] | 0.525 |
| FQKNVYSEELR [LMNA_Y211_I210V] | 0.486 |
| IQKKYYRAILE [CHD7_Y1218] | 0.432 |

These sequences were tested against Jak2 (UniProt O60674) in the same assay as above.
Sequence of Jak2 (O60674 whole entry, looked up): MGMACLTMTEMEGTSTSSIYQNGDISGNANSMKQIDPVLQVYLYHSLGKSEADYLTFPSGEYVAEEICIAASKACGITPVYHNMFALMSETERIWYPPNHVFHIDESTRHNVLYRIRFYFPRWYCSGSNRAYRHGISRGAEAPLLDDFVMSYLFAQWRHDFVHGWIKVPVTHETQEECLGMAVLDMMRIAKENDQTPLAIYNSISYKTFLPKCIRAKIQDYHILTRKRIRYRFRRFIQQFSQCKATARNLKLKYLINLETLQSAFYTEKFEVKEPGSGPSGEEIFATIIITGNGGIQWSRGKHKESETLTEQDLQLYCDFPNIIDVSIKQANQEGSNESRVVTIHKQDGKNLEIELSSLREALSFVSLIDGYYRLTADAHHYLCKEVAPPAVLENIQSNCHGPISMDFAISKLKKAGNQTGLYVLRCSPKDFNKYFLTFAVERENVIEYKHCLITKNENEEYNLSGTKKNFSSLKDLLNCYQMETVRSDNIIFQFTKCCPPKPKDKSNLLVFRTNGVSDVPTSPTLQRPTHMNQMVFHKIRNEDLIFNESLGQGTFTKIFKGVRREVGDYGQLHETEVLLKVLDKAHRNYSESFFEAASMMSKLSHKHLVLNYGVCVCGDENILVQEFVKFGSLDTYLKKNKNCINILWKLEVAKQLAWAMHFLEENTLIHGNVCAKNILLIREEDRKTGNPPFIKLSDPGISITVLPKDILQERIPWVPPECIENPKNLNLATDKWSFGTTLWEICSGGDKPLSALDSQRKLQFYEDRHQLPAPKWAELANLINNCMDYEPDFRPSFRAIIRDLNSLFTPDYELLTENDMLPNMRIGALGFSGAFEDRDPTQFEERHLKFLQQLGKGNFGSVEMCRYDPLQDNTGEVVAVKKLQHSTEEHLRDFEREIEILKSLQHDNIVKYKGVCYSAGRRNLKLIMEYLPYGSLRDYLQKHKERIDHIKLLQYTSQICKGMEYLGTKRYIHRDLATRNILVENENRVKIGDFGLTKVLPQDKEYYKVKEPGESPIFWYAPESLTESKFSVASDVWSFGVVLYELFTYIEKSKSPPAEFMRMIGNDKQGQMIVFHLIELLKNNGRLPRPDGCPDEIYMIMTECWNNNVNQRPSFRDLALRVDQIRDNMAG

| Sequence | phosphorylation enrichment |
| --- | --- |
| AEVIWYKGDEV | 1.42 |
| EILLSDLRTGY [TGM1_Y365_Y365D] | 0.744 |
| QDEHGYISLCF [HSPB1_Y133_R136L] | 3.37 |
| RQGKDYIGAIP [KDR_Y951_V952I] | 1.14 |
| CGTPDYIAPEI [PRKCG_Y521] | 0.882 |
| LVTCSYLLGNS [LMNA_Y646_R644C] | 2.94 |
| QDTSRYTVCNL [BIRC3_Y245_S248C] | 0.741 |
| KELANYFKLHH [AK7_Y390_YF] | 1.68 |
| KDHPDYKYQPR [SOX10_Y171] | 0.509 |
| WAMLAYNRSKL [WWOX_Y293] | 1.02 |
| EKLIQYCQSKS [AKR1B1_Y199_G204S] | 0.562 |
| DMDATYRPMFS [JUP_Y701_YF] | 0.752 |
| WHYTFYNELRV [ACTC1_Y93_H90Y] | 1.27 |
| TQTPPYVKKHR [LARP1B_Y457_P462R] | 1.04 |
| NPQKSYLIRLF [WAS_Y83_F84L_YF] | 0.681 |
| KRGVSYILKLA [SERPINB1_Y84_A82V] | 1.34 |
| CPPKVYELMRA [ABL2_Y515] | 0.53 |

| Sequence | phosphorylation enrichment |
| --- | --- |
| FLTQHYDAKPQ [ANG_Y38] | 0.869 |
| EDKFMYFEFPQ [PTEN_Y240] | 2.05 |
| RVNSAYQEKVS [ACAN_Y100_D102E] | 0.538 |
| FTRNFYVRAVL [CYBA_Y88_YF] | 1.54 |
| MSLRSYGSREG [APC_Y96] | 0.451 |
| VDTFWYKFLKR [EPM2A_Y86] | 1.05 |
| FQLENCCNGGG [INS_Y108_Y108C_YF] | 0.85 |
| QSVEPYTKQQL [STAT3_Y640] | 0.755 |
| EYYENYIEELK [PARP4_Y218_F215Y] | 1.11 |
| SAASGYSDVTD [DTX2_Y425_T421A] | 0.963 |
| LRWREYQRQDY [PRKRIP1_Y90_R87W] | 0.997 |
| KILGRYFETGS [PAX2_Y72_YF] | 0.759 |
| FPLELYERVRI [PRKCG_Y312_M317I_YF] | 1.39 |
| MTFVFYRENLR [NLRP14_Y443_YF] | 1.13 |
| FQKNVYSEELR [LMNA_Y211_I210V] | 0.672 |
| IQKKYYRAILE [CHD7_Y1218] | 0.563 |

Each sequence was assayed against MERTK (UniProt Q12866) in the same assay as above.
Sequence of MERTK (Q12866 whole entry, looked up): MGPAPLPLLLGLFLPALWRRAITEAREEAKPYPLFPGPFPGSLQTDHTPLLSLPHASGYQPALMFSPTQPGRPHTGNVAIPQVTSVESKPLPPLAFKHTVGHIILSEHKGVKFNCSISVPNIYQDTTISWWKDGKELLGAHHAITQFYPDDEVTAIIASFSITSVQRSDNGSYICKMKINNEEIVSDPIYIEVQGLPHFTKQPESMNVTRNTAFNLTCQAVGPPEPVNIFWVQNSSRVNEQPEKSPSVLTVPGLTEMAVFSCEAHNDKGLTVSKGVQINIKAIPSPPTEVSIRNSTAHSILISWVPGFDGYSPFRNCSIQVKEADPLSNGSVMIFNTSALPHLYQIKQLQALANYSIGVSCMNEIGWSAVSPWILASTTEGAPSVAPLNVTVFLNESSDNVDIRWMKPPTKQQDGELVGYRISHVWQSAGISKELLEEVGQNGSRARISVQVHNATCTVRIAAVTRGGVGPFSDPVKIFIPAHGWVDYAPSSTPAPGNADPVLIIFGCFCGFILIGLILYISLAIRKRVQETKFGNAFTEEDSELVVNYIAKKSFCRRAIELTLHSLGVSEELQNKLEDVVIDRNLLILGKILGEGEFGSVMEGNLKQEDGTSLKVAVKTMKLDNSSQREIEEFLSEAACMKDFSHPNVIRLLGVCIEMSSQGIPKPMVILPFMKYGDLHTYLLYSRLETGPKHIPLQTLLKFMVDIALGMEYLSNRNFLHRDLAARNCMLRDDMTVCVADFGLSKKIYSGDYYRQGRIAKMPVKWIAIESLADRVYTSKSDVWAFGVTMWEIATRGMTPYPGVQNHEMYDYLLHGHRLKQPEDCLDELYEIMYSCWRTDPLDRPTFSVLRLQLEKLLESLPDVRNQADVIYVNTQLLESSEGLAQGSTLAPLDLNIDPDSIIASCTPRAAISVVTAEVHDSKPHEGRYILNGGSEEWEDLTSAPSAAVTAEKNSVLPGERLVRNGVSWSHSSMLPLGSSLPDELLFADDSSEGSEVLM

| Sequence | phosphorylation enrichment |
| --- | --- |
| AEVIWYKGDEV | 0.399 |
| EILLSDLRTGY [TGM1_Y365_Y365D] | 0.422 |
| QDEHGYISLCF [HSPB1_Y133_R136L] | 1.36 |
| RQGKDYIGAIP [KDR_Y951_V952I] | 0.813 |
| CGTPDYIAPEI [PRKCG_Y521] | 0.444 |
| LVTCSYLLGNS [LMNA_Y646_R644C] | 0.99 |
| QDTSRYTVCNL [BIRC3_Y245_S248C] | 0.348 |
| KELANYFKLHH [AK7_Y390_YF] | 0.545 |
| KDHPDYKYQPR [SOX10_Y171] | 0.387 |
| WAMLAYNRSKL [WWOX_Y293] | 0.37 |
| EKLIQYCQSKS [AKR1B1_Y199_G204S] | 0.395 |
| DMDATYRPMFS [JUP_Y701_YF] | 0.461 |
| WHYTFYNELRV [ACTC1_Y93_H90Y] | 0.869 |
| TQTPPYVKKHR [LARP1B_Y457_P462R] | 0.541 |
| NPQKSYLIRLF [WAS_Y83_F84L_YF] | 0.413 |
| KRGVSYILKLA [SERPINB1_Y84_A82V] | 0.446 |
| CPPKVYELMRA [ABL2_Y515] | 3.81 |

| Sequence | phosphorylation enrichment |
| --- | --- |
| FLTQHYDAKPQ [ANG_Y38] | 0.557 |
| EDKFMYFEFPQ [PTEN_Y240] | 1.68 |
| RVNSAYQEKVS [ACAN_Y100_D102E] | 0.5 |
| FTRNFYVRAVL [CYBA_Y88_YF] | 0.503 |
| MSLRSYGSREG [APC_Y96] | 0.418 |
| VDTFWYKFLKR [EPM2A_Y86] | 0.432 |
| FQLENCCNGGG [INS_Y108_Y108C_YF] | 0.516 |
| QSVEPYTKQQL [STAT3_Y640] | 0.709 |
| EYYENYIEELK [PARP4_Y218_F215Y] | 0.38 |
| SAASGYSDVTD [DTX2_Y425_T421A] | 0.294 |
| LRWREYQRQDY [PRKRIP1_Y90_R87W] | 0.409 |
| KILGRYFETGS [PAX2_Y72_YF] | 0.375 |
| FPLELYERVRI [PRKCG_Y312_M317I_YF] | 0.453 |
| MTFVFYRENLR [NLRP14_Y443_YF] | 0.369 |
| FQKNVYSEELR [LMNA_Y211_I210V] | 0.518 |
| IQKKYYRAILE [CHD7_Y1218] | 0.341 |

Each sequence was assayed on c-Abl (mouse) in the same assay as above.

| Sequence | phosphorylation enrichment |
| --- | --- |
| AEVIWYKGDEV | 1.15 |
| EILLSDLRTGY [TGM1_Y365_Y365D] | 0.421 |
| QDEHGYISLCF [HSPB1_Y133_R136L] | 2.42 |
| RQGKDYIGAIP [KDR_Y951_V952I] | 1.88 |
| CGTPDYIAPEI [PRKCG_Y521] | 0.632 |
| LVTCSYLLGNS [LMNA_Y646_R644C] | 1.95 |
| QDTSRYTVCNL [BIRC3_Y245_S248C] | 0.854 |
| KELANYFKLHH [AK7_Y390_YF] | 0.439 |
| KDHPDYKYQPR [SOX10_Y171] | 0.687 |
| WAMLAYNRSKL [WWOX_Y293] | 0.541 |
| EKLIQYCQSKS [AKR1B1_Y199_G204S] | 0.638 |
| DMDATYRPMFS [JUP_Y701_YF] | 0.763 |
| WHYTFYNELRV [ACTC1_Y93_H90Y] | 0.979 |
| TQTPPYVKKHR [LARP1B_Y457_P462R] | 1.18 |
| NPQKSYLIRLF [WAS_Y83_F84L_YF] | 0.523 |
| KRGVSYILKLA [SERPINB1_Y84_A82V] | 0.768 |
| CPPKVYELMRA [ABL2_Y515] | 0.585 |

| Sequence | phosphorylation enrichment |
| --- | --- |
| FLTQHYDAKPQ [ANG_Y38] | 0.613 |
| EDKFMYFEFPQ [PTEN_Y240] | 0.952 |
| RVNSAYQEKVS [ACAN_Y100_D102E] | 0.489 |
| FTRNFYVRAVL [CYBA_Y88_YF] | 1.57 |
| MSLRSYGSREG [APC_Y96] | 0.491 |
| VDTFWYKFLKR [EPM2A_Y86] | 0.78 |
| FQLENCCNGGG [INS_Y108_Y108C_YF] | 0.546 |
| QSVEPYTKQQL [STAT3_Y640] | 0.81 |
| EYYENYIEELK [PARP4_Y218_F215Y] | 0.775 |
| SAASGYSDVTD [DTX2_Y425_T421A] | 0.446 |
| LRWREYQRQDY [PRKRIP1_Y90_R87W] | 0.737 |
| KILGRYFETGS [PAX2_Y72_YF] | 0.563 |
| FPLELYERVRI [PRKCG_Y312_M317I_YF] | 0.739 |
| MTFVFYRENLR [NLRP14_Y443_YF] | 0.668 |
| FQKNVYSEELR [LMNA_Y211_I210V] | 0.535 |
| IQKKYYRAILE [CHD7_Y1218] | 0.468 |
